# Changes are numbered by the printed parent chain. Names may count otherwise.
# B1: NGF K34A/R69A (ligand)
# chain: SSSHPIFHRGEFSVCDSVSVWVGDKTTATDIKGAEVMVLGEVNINNSVFKQYFFETKCRDPNPVDSGCAGIDSKHWNSYCTTTHTFVKALTMDGKQAAWRFIRIDTACVCVLSRKAVRRA
# B2: NGF K34D/R69A/R100D (ligand)
# chain: B1 chain with A34D, R100D
# B3: NGF K34D/R69A (ligand)
# chain: B1 chain with A34D
# B4: NGF K34D/K32A (ligand)
# chain: B1 chain with K32A, A34D, A69R
# B5: NGF K34D/R100E (ligand)
# chain: B1 chain with A34D, A69R, R100E
# B6: NGF K34A/R69A/R100E (ligand)
# chain: B1 chain with R100E
# B7: NGF K34D/K32D (ligand)
# chain: B1 chain with K32D, A34D, A69R
# notes: Double mutein of mature human NGF; expressed in HEK293 cells; also called NGF34D/K32D; NGF34D/32 D
# Assays:
# [1] = target: T1, human TrkA on TF1 erythroleukemic cells (human, UniProt P04629 33-796); experiment: cell-based or functional assay
# T1 sequence (P04629 33-796): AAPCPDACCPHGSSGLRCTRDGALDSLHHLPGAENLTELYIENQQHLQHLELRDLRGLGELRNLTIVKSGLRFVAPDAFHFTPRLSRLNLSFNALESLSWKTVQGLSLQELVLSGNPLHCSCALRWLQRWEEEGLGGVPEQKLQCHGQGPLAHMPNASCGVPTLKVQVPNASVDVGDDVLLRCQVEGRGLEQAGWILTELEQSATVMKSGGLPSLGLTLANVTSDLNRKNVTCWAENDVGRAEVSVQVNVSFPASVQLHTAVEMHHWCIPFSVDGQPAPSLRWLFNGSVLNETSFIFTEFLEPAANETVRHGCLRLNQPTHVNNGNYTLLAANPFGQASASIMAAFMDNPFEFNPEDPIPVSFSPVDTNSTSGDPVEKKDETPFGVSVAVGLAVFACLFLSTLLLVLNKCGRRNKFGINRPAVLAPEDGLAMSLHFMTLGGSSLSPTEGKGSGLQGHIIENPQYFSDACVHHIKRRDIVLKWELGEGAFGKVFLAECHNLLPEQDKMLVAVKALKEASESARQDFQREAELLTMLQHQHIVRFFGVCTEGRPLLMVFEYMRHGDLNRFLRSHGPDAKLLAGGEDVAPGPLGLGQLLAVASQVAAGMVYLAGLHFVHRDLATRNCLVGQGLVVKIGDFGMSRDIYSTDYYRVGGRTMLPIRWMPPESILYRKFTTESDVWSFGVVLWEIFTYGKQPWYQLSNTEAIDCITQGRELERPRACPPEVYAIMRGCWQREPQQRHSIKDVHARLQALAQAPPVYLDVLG
# [2] = target: T1, human TrkA on TF1 erythroleukemic cells; experiment: cell-based or functional assay; remark: listed apart in the source
# [3] = target: T1, human TrkA on TF1 erythroleukemic cells; experiment: cell-based or functional assay; remark: listed apart in the source
# [4] = target: T2, TrkA receptor immobilized on the Biacore chip (UniProt P04629 33-423, limits assumed); experiment: SPR, Biacore 3000; Table 4 column Binding affinity (nM), TrkA receptor
# T2 sequence (P04629 33-423 limits assumed): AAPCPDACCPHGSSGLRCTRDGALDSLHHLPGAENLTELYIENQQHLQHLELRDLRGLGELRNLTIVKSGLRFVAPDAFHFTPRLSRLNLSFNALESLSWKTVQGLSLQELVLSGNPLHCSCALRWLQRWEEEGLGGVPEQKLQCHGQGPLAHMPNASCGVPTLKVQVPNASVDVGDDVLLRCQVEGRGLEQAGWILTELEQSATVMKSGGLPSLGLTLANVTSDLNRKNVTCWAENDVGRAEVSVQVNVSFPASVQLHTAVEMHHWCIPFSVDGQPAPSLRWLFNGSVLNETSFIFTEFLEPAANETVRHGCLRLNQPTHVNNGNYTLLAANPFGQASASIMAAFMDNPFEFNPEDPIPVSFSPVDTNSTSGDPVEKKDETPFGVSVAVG
# Method: (§1) The binding experiments were performed on Biacore 3000 at 25° C. Receptors were directly immobilized by direct immobilization using EDC/NHS amine coupling kit and GE protocol. The receptor was coated until the desired RU. The unoccupied active sites on the chip were quenching by flowing 1 M ethanol amine. […] Data were analyzed using Biacore 3000 bia evaluation software (Biacore) using the values after reference subtraction. KD was determined by applying either local (for scouting) or global (full kinetics) 1:1 Langmuir fitting model. Full kinetics was performed with the range of analyte at a 2-fold serial dilution and flowed over the ligand from lowest to highest concentration range.
# [5] = target: T3, p75^NTR receptor immobilized on the Biacore chip (UniProt P08138 29-250); experiment: SPR, Biacore 3000; against NGF wt
# T3 sequence (looked up): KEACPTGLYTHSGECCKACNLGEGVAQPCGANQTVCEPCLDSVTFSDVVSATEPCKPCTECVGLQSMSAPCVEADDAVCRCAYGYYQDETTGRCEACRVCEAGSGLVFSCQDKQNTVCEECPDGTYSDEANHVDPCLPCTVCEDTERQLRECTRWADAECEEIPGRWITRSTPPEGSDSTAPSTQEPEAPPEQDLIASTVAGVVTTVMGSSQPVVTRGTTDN
# Method: as §1
# [6] = target: T2, TrkA receptor immobilized on the …; experiment: SPR, Biacore 3000; against NGF wt
# Method: as §1
# [7] = target: T3, p75^NTR receptor immobilized on the …; experiment: SPR, Biacore 3000, 25 C, receptor amine-coupled on chip, NGF mutein as analyte
# Method: as §1
# [8] = target: T2, TrkA receptor immobilized on the …; experiment: SPR, Biacore 3000, 25 C, receptor amine-coupled on chip, NGF mutein as analyte, 1:1 Langmuir
# Method: as §1
# [9] = target: T3, p75^NTR receptor immobilized on the …; experiment: SPR, Biacore 3000; Table 4 column Binding affinity (nM), P75^NTR
# Method: as §1
# [10] = target: T2, TrkA receptor immobilized on the …; experiment: SPR, Biacore 3000; ratio of the affinity for TrkA over that for p75^NTR
# Method: as §1
binder,measurement,setting,value
B1,"EC50 in TF-1 proliferation assay, protein kept 7 days at 4° C.",[1],9.13 ng/mL
B2,"EC50 in TF-1 proliferation assay, protein kept 7 days at 4° C.",[1],23 ng/mL
B3,"EC50 in TF-1 proliferation assay, protein kept 7 days at 4° C.",[1],12.3 ng/mL
B4,"EC50 in TF-1 proliferation assay, 4° C.",[2],1.91 ng/mL
same,"EC50 in TF-1 proliferation assay, after storage at 55° C.",[2],9.7 ng/mL
B5,"EC50 in TF-1 proliferation assay, protein kept 7 days at 4° C.",[1],58.8 ng/mL
B6,"EC50 in TF-1 proliferation assay, protein kept 7 days at 4° C.",[1],689 ng/mL
B7,TrkA receptor Bio-activity,[3],2.62 ng/mL
same,Kd,[4],0.61 nM
same,fold reduction of binding affinity against wildtype,[5],625 fold
same,"binding affinity, % of wildtype",[6],5.9 % of wildtype
same,fold reduction of binding affinity against wildtype,[6],18 fold
same,Kd,[7],> 200 nM
same,Kd,[8],0.607 nM
same,koff,[8],0.00398 s⁻¹
same,kon,[8],6.54e+06 M⁻¹ s⁻¹
same,Kd,[9],> 200 nM
same,"EC50 in TF-1 proliferation assay, 4° C.",[2],2.62 ng/mL
same,"EC50 in TF-1 proliferation assay, after storage at 55° C.",[2],1.15 ng/mL
same,Binding selectivity (TrkA/p75^NTR),[10],> 328 fold
